Numbering of substitutions follows the chain as printed. Names may count otherwise.
B1: Human mature FGF21 mutant RGE (FGF21RGE), Q9NSA1 29-209 (ligand)
chain: HPIPDSSPLLQFGGQVRQRYLYTDDAQQTEAHLEIREDGTVGGAADQSPESLLQLKALKPGVIQILGVKTSRFLCQRPDGALYGSLHFDPEACSFRERLLEDGYNVYQSEAHGLPLHLPGNKSPHRDPAPRGPARFLPLPGLPPAPPEPPGILAPQPPDVGSSDPLSMVGGSQGRSPSYES
B2: Compound 5.6, Q9NSA1 29-209 (ligand)
chain: B1 chain with D38C
modifications: here or on the partner: Cys 38 (D38C) carries the albumin-binding agent of Example 2.2, C18 Dicarboxylic Acid-gGlu-AEEA-AEEA-Lys(bromoacetyl)-COOH (bromine displaced by the thiol)
B3: Compound 5.7, Q9NSA1 29-209 (ligand)
chain: B1 chain with D46C
modifications: here or on the partner: Cys 46 (D46C) carries the albumin-binding agent of Example 2.2, C18 Dicarboxylic Acid-gGlu-AEEA-AEEA-Lys(bromoacetyl)-COOH (bromine displaced by the thiol)
B4: Compound 5.2, Q9NSA1 29-209 (ligand)
chain: B1 chain with D38C
modifications: here or on the partner: Cys 38 (D38C) carries the albumin-binding agent of Example 2.1, C18 Dicarboxylic Acid-AEEA-gGlu-gGlu-Lys(bromoacetyl)-COOH (bromine displaced by the thiol)
B5: Human mature FGF21 mutant D38C (FGF21D38C), Q9NSA1 29-209 (ligand)
chain: B1 chain with D38C
B6: Compound 5.3, Q9NSA1 29-209 (ligand)
chain: B1 chain with D46C
modifications: here or on the partner: Cys 46 (D46C) carries the albumin-binding agent of Example 2.1, C18 Dicarboxylic Acid-AEEA-gGlu-gGlu-Lys(bromoacetyl)-COOH (bromine displaced by the thiol)
B7: Compound 5.5, Q9NSA1 29-209 (ligand)
chain: B1 chain with H125C
modifications: here or on the partner: Cys 125 (H125C) carries the albumin-binding agent of Example 2.1, C18 Dicarboxylic Acid-AEEA-gGlu-gGlu-Lys(bromoacetyl)-COOH (bromine displaced by the thiol)
B8: Compound 5.10, Q9NSA1 29-209 (ligand)
chain: B1 chain with D46C
modifications: here or on the partner: Cys 46 (D46C) carries the albumin-binding agent of Example 2.3, C20 Dicarboxylic Acid-AEEA-gGlu-gGlu-Lys(bromoacetyl)-COOH (bromine displaced by the thiol)
B9: Human mature FGF21 mutant E30C (FGF21E30C), Q9NSA1 29-209 (ligand)
chain: B1 chain with E30C
B10: Compound 5.14, Q9NSA1 29-209 (ligand)
chain: B1 chain with K122C
modifications: here or on the partner: Cys 122 (K122C) carries the albumin-binding agent of Example 2.4, C20 Dicarboxylic Acid-gGlu-AEEA-AEEA-Lys(bromoacetyl)-COOH (bromine displaced by the thiol)
B11: Compound 5.9, Q9NSA1 29-209 (ligand)
chain: B1 chain with H125C
modifications: here or on the partner: Cys 125 (H125C) carries the albumin-binding agent of Example 2.2, C18 Dicarboxylic Acid-gGlu-AEEA-AEEA-Lys(bromoacetyl)-COOH (bromine displaced by the thiol)
B12: Human mature FGF21 mutant H125C (FGF21H125C), Q9NSA1 29-209 (ligand)
chain: B1 chain with H125C
B13: Human mature FGF21 mutant D46C (FGF21D46C), Q9NSA1 29-209 (ligand)
chain: B1 chain with D46C
B14: Compound 5.1, Q9NSA1 29-209 (ligand)
chain: B1 chain with E30C
modifications: here or on the partner: Cys 30 (E30C) carries the albumin-binding agent of Example 2.1, C18 Dicarboxylic Acid-AEEA-gGlu-gGlu-Lys(bromoacetyl)-COOH (bromine displaced by the thiol)
B15: Compound 5.11, Q9NSA1 29-209 (ligand)
chain: B1 chain with K122C
modifications: here or on the partner: Cys 122 (K122C) carries the albumin-binding agent of Example 2.3, C20 Dicarboxylic Acid-AEEA-gGlu-gGlu-Lys(bromoacetyl)-COOH (bromine displaced by the thiol)
B16: Human mature FGF21 mutant K122C (FGF21K122C), Q9NSA1 29-209 (ligand)
chain: B1 chain with K122C
B17: Compound 5.4, Q9NSA1 29-209 (ligand)
chain: B1 chain with K122C
modifications: here or on the partner: Cys 122 (K122C) carries the albumin-binding agent of Example 2.1, C18 Dicarboxylic Acid-AEEA-gGlu-gGlu-Lys(bromoacetyl)-COOH (bromine displaced by the thiol)
B18: Compound 5.8, Q9NSA1 29-209 (ligand)
chain: B1 chain with K122C
modifications: here or on the partner: Cys 122 (K122C) carries the albumin-binding agent of Example 2.2, C18 Dicarboxylic Acid-gGlu-AEEA-AEEA-Lys(bromoacetyl)-COOH (bromine displaced by the thiol)
B19: Compound 5.15, Q9NSA1 29-209 (ligand)
chain: B1 chain with H125C
modifications: here or on the partner: Cys 125 (H125C) carries the albumin-binding agent of Example 2.4, C20 Dicarboxylic Acid-gGlu-AEEA-AEEA-Lys(bromoacetyl)-COOH (bromine displaced by the thiol)
B20: Compound 5.13, Q9NSA1 29-209 (ligand)
chain: B1 chain with D46C
modifications: here or on the partner: Cys 46 (D46C) carries the albumin-binding agent of Example 2.4, C20 Dicarboxylic Acid-gGlu-AEEA-AEEA-Lys(bromoacetyl)-COOH (bromine displaced by the thiol)
B21: Compound 5.12, Q9NSA1 29-209 (ligand)
chain: B1 chain with H125C
modifications: here or on the partner: Cys 125 (H125C) carries the albumin-binding agent of Example 2.3, C20 Dicarboxylic Acid-AEEA-gGlu-gGlu-Lys(bromoacetyl)-COOH (bromine displaced by the thiol)

What follows are binders tested against FGFR1c, P11362 (assay: cell-based or functional assay).
Chain of FGFR1c, P11362 (P11362 22-822): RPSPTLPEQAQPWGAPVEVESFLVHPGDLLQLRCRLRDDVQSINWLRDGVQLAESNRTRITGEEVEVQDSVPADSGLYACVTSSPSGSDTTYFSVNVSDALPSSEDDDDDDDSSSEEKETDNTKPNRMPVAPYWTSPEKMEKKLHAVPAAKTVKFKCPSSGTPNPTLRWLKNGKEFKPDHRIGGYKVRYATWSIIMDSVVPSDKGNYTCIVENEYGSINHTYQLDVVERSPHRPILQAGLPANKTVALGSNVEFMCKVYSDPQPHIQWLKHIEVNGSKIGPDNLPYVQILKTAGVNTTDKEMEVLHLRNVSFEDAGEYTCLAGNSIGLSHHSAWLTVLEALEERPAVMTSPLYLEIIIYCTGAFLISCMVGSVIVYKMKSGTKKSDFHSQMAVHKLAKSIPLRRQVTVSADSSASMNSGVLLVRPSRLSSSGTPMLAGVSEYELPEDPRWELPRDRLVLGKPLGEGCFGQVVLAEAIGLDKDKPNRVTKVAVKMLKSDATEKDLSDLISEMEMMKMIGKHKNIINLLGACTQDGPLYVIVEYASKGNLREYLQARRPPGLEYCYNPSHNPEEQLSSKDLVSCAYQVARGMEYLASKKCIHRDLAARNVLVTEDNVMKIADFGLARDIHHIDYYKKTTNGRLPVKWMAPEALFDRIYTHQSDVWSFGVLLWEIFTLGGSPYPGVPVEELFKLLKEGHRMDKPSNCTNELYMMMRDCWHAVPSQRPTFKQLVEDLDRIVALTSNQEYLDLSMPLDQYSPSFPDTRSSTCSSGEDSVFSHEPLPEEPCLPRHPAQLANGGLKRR

EC50(nM), dual-luciferase reporter gene assay, iLite FGF21 assay ready cells [nM] | Binder
0.25 | B1
2.06 | B2
1.06 | B3
1.99 | B4
1 | B5
0.24 | B6
0.52 | B7
2.69 | B8
1.31 | B9
1.02 | B10
1.18 | B11
0.28 | B12
0.28 | B13
4.61 | B14
2.09 | B15
0.3 | B16
0.99 | B17
1.13 | B18
0.47 | B19
1.84 | B20
1.4 | B21

From patent EP4700044A1, “PROTEIN ANALOGUE AND USE THEREOF” (Shanghai Duomirui Biotechnology., Ltd., priority 2023, dated 2024)
